# In publication PMC7566563:
# Target: Cglo-CDPS-S32A (Candidatus Glomeribacter gigasporarum) (UniProt G2JBB2)
# Test: EMSA
# Conditions: 8 mM MgCl2; apparent Kd, 3 experiments; 3'-phenylalanylated; native E. coli modifications (s4U8, D16, D20, psi32, psi39, ms2i6A37, m7G46, acp3U47, T54, psi55); EMSA: 75 nM tRNA, 0.1-15 uM enzyme, 20 min at 4 C in buffer A (10 mM MOPS pH 6.7, 200 mM NaCl, 8 mM MgCl2, 5 mM 2-mercaptoethanol); native 12% gel in 90 mM …
substance,measurement,value
Phe-tRNAPhe,Kd,1600 nM
